The DeepSol protein solubility set

Assay: soluble on expression in E. coli; label from the status in PepcDB or PDB records

Sequence | soluble on expression in E. coli
MKIKEMVTSEMPRERLLSHGAKSLSNTELLAILINTGRKGFSSIDISNELLKSASNLNELKKSSINDLIKVKGIGLQKAITLKAAFELGERMGRRAENNRIKITQPSDVADYMIPTMKDLTQEHFVILLLNSKNVVIKETCVFKGTLNSSIVHPREIFSIAVRENANAIIAVHNHPSGDVLTIV | not soluble
MSLELTISELKENFWGEYEYLDGGYMAARLAVLEHLEQIKRQSGIIIIREITEEYFAPVGNWHIRETVRNAMKNRLGKYDNLNLAISEVNKKLKAKINLFELRTINSLINQKSIYDFFKEGHHHHHH | not soluble
MAKAQLSQNGEARAWQRMLSGRRLDLLNPSPFDIEIEDIAHGLARVARWNGQTQGEYAYSVAQHSLLVEQIFQKLFPQSQNNECLCALLHDAPEYVIGDIISPFKAVIGKQYELIEKRIQDAIHMRFSLPVAPSQKLLKKIKQADRIAAFHESIILAGFNTEEALRYFGHPNNISPEGLNLQPCSTTKIENAFLKRFHDLDVERLH | not soluble
MSGSIARCETWPFPLHFSLLLLLLDFPACGNKGGLVIFIAHKFSMLRLSMHRASLPLWVGARLLSSTAVLRLEQSAEERTREEELRQRVQQKYRGMQIPEMTHHEYGHFSTTGISASAAHQAARSAGVEGYPGFGGGAFQNRGRVDWLLLLTGCTLVYLSFKILFRQFTRGVNGLELPLWTASIELQAKHILFAVQFQQSEQDQIKKDFEAVRQTNPFVDFFEWVRSRRPEFCCGRKYGADYVMHTLVSCLRSGDGTQLATLARTLQQSMTRKNGDSLQRVDDFVEQLQSAGYLFQGIRGVGSSGVHTPEHSPQPIYTPLREVSQCGVQESDLINALDVKNGEAHSSTPFREAK | soluble
MAHHHHHHMEPSVKESVSRIPLLKTKAGPRDGDKWTARLKEEYASLITYVEHNKASDSHWFHLESNPQGTRWYGTCWTYYKNEKYEFEMNFDIPVTYPQAPPEIALPELEGKTVKMYRGGKICMTTHFFPLWARNVPYFGISHVLALGLGPWLSIEVPAIVEEGYLKPASAATVPTTGE | soluble
MPILNLNNFLAALGNTPDYGRLFARAEHLAQVQKHLLNAVPFQLRNQCTVGQYTADGLLVIYAGNGTTATRLRHLAPSIRQKMNNAGVKVENIRFSIQPQLHSLESGNVREITRSLSQTAIEHLDKLSDSLPAGSPLQSSLAALLANSRRK | not soluble
GPGSMEQWSACEAATRRVLAVDRTERYPSARRLVRVFISQGRLQEAQQAVSPHRDAIDWAAEVAAVKACTSYTNFYAAHQYSKALESLEVVLSLCPCGTLEAAKARLLSLENAAQAVSYAAQRSRAYATSTELHFCLWSLTFHSVTSVVGLDTLLADMQATPLGRSELRFRHLHTHIARCKEALAKLQVLKTARQWREAATFVTQVLAEPFLPDGLKGVMYYERARALAQQASWYATLDDTHRALSYTEAVSLRANMLLLVARCEEALGRLRDAVYHTEESLGLASNAAAVEQLRSLKARWAHVQASTDAPRTTPRTTSKETPKPNTNANAFSPVSRASLDVHYKTLSLPRSAGAAEVKKSYRALAIKWHPDRWCSASTEAIRTAESTFKTIQHAYEEIMKSAS | not soluble
MGHHHHHHSHMGKGTFVYRTTITSPHEEVWAFFSSPTNLQTLTKIPKVVLDSTSETTQGSEIEMKLFVLGIPFQWKAYIEAYNPPFSFTDVAIKMPFPIVYWRHTHRFTTEGERTVMIDEIQYEIKMANKLVIFFLRRMFRARESALHRYFQS | soluble
MAEEKFFLGRQPILDREQRLYGFELLFRSADSLHANVTDYLQASASVIFDALSSFGFREILGKHKGFINVNADVLMSEALELLPPEKVVIELLEHVPITETVISRCHELREKGFSLALDDHIYEPVYEPLYHLVDVIKVDLFRTGMENLASEVETLRKWNTKLLAEKVETVEQYERCADLGFTYFQGYYFARP | not soluble
MGSDKIHHHHHHMNINPTEKLSQPIVEKVAIVGAGPGGLAAAIALRSQGIDVQIYEKAQEFRPAGTGLGLAPNGLNFLDAIAPGIVETLKGSGCEVHHTVLKNFRGETIRANASKYQEKYGQPLVTVWWYRLQQVLASRLPSDIVHLNHRCIGFEQDENGVEIRFDGEKSVYADLLIGADGVNSVIREILFGEGKPNYIGSMCWRAVIKYHHELFNDYELVFVKGNQQFMYLLNVGGGYMSWISRKFSPEYSLCHSADEVKSRILHELADWDESFQVVVQATPAEQIWEGPICDRPPLTHWSQGRVTLLGDAAHPMAPAMGQGANTTFEDAYELRECFSQSANLQEALTSYEQRRMQRTEIIQARSALGEMRYYESNTVASNGQREQTMSVNDDFHKWLYDYKPSATIKF | not soluble
MGSDKIHHHHHHMTKKRIFVTGASGCIGHYISETLIQETDYELYLLVRNPSKLQVDTQIRPGITVLQGDMQNISQFADLLSTIDIAVLTATAWGGEQTFDINVSKTIELLNLLDPDRCQQVIYFSTASVLDSHNQPLKEAGEIGTDYIRSKYECLHKISELGIASKITTVFPTLVLGGDSKKPYSHLTSGIPEVTKYVNLIRFLQADGSFHFIHGKDIASVVKYLIVNPPQENTSRRLVLGQKRLTANQAIEEVCTYLGKKISFRIPLSLSLANLIIAVFRIQMADWDRFCMNYRHFTYDTVINPDSFGLPNYCATMSDVLKISGVDSSHQ | not soluble
KKHILVYNEEADEALRQIKADRIELHQSFKASFERLNEIQQLAYTNAMTRDAALIQEPDFDPEQLESDYYRNLYRINTRRDNLNTHRALEN | not soluble
MVATEKKFVLTHIFKNVSKMKDSDFLYSPEENLFNVPWFMLIARKDDHFGVFLHCQKINEAGPTWSVDTQNTIRVKTLSASKVSSEIFKHKFEKNEGWGYFKFISWDTLTNDYLIDDCIIVEITVKITKMTGIPKKVLRSFDKSAEEFSDVVLEVGGKKFYVLKKFLASHSTYFNALLLGKPEMSEVTIQDTSSVDFQNLLEVLYGEPAIDEDTIDGILTLAHKFTMPLPIQKCEEFLIEKSEKSVKEKLKLVKKYQLKSLKTHCLSKINTPYGINALMPFDHNDMDPEVVMALLKKSLATDEFYLDCIMRFTVICLIFITVGLII | not soluble
MGSDKIHHHHHHMYEDELIFLEKTASIDIFEYSEQGIKTILDSPKHYNHGLMIRAAKLSREGFYSLVKYNSSYMLLVPLAKDKGLILSPKIDSLNNSESSFSNIDFINHSTSLAELAYFLYTKESAPNWNRVIYNLNEISDPVKQVQPMKNLHAFHRYANKMVDYFAQLDDKKFKLYINKMKSCQVFGDTLTTSNVIRGEKDILIDIISKLTDRSEKEGLPFEKVVFIQSVSVQKIELQANILNFNGWLEEIPYAYFNELKKWRENLFIDKADKIERYLKLNSRENIKLKDISKELGISEQSLNTIFKKKYGMTTKKYLIELKIENDKELLTTTELKIHDISEYLSFIDESYFISTFNKSCGMTPSKYRQNYIDKLLNKKSV | not soluble
MPDTSPDLPAMSPLAVYRQAVEQRGFAPDEAQRRAAEALERCFQALHEAHRHGAIQGVYLWGPVGRGKTWLMDHFYQCLRVPARRQHFHHFMQWVHQRQFELTGTADPLRALARELARDVRVLCFDELFVSDIGDAILLGSLLRIMFEEGVVLVATSNQPPEQLYADGFNRERFLPAIEAIQRHMAVVAVDGGQDHRLHPGRAEQRYWVVEAGQASGFAELFARLSAGEAASTQPIELGHRPLAVHRHSESVLWCSYAQLCEAPLSALDFIGLCDRYRAILMDDLPCLSASQREGRIARGTEDGAQLVEAGDRELPQLSVHDDGVRRFIALVDECYDRKVPLYLEARVPLEALYTEGYLAFAFRRTLSRLREMQLARFGSDSAG | not soluble
MTLMIDENFKKQLAQRRERVEDLFYFENSKEIGRGTYGLVYKAVPKKQNGQFPNKEYALKMIEGQGFSMSACREIALFRELRHPNLICLQRVFLTNEKKVWLLLDYAEHDLWHVIKHHRTAKSKKVPIMVPRNMVKNILFQILSGMHYLHSNWVLHRDLKPANILLMGDGPPDMRGRVKIADLGFSRIYANPLKPMAELDPVVVTFWYRAPELLLGAKHYTKAIDVWAIGCIFAELLTAEPLFFCKEEDIKAQNPYHYDQVKRIFHLLGYPSDADWPDMKKMPDHQRLLSDARNEGTPIQTFPNSLHRYFDKWKINSQSSPYRLLVKLLTVDPTKRVSCEEAMNDIYFRKMERPPRETDDVFNKYPIPYAKKEQQMTVAPDQAQQQHQQQQVQMQQQPQMGQQQMMGQPQMVQPQMGQPPMGGAHPGVVAPDGHPHQMMQQQQHPQQHHMQYQGMHDPMQGGMDEGPQAKMMRMGNVPVGRYAPMPPPYGAPQDYHPQQGPPMVQMMQQPGPSGYYPQRPGQPTGAVPGPGPQGYMNPQMGMQMGMRAPGVPPQGYMPGRGMAPPQMGQQQPGPNQQQQQQWQQQYHR | not soluble
MTFRNCVAVDLGASSGRVMLARYERECRSLTLREIHRFNNGLHSQNGYVTWDVDSLESAIRLGLNKVCEEGIRIDSIGIDTWGVDFVLLDQQGQRVGLPVAYRDSRTNGLMPQAQQQLGKRDIYQRSGIQFLPFNTLYQLRALTEQQPELIPHIAHALLMPDYFSYRLTGKMNWEYTNATTTQLVNINSDDWDESLLAWSGANKAWFGRPTHPGNVIGHWICPQGNEIPVVAVASHDTASAVIASPLNGSRAAYLSSGTWSLMGFESQTPFTNDTALAANITNEGGAEGRYRVLKNIMGLWLLQRVLQERQINDLPALIAATQALPACRFIINPNDDRFINPDEMCSEIQAACRETAQPIPGSDAELARCIFDSLALLYADVLHELAQLRGEDFSQLHIVGGGCQNTLLNQLCADACGIRVIAGPVEASTLGNIGIELMTLDELNNVDDFRQVVSTTANLTTFTPNPDSEIAHYVAQIHSTRQTKELCA | not soluble
MGSDKIHHHHHHMILKFVIRMGLTISEKIEEIMSSNESNTTLYNISSLEHLHAIFRAYRPHNGFGVVYRGQADCHWKLLPKAGRQEYLLPDDRDLGVFKDWLDRAIAYENVPNYFIEQLALAQHHGLATRLLDWTINPLIACYFACCSYPDKDGVIYILELPKTFATVDLSMETLKECSEVISYRPRQFSPRILNQGGIFTIHNPPDTTIDIGPGRIALDMPNLVQIILGKNLKHDILEMLSDYGIDERYIYPDLDGLSRSLNHSMMRMVRQRVERIDL | not soluble
MGSSHHHHHHSSGLVPRGSHMASKNVSIIGSPLAAGQPLGGVQLACDDLRKLGLHNVIDVLGWKYEDIGNIDNGDNEMKQEKKTNNYINNNDNNNDNNNDNNNDNNNNCYIPNGVIKEKKHDLSNNKMNGYVNHNFYGNYEENNVISTNDKYKNNCYYDNIRNIKEIGIFSKNLFDTMSNELRKKNFVLNIGGDHGVAFSSILSSLQMYQNLRVIWIDAHGDINIPETSPSGNYHGMTLAHTLGLFKKKVPYFEWSENLTYLKPENTAIIGIRDIDAYEKIILKKCNINYYTIFDIEKNGIYNTICTALEKIDPNSNCPIHISLDIDSVDNVFAPGTGTVAKGGLNYREINLLMKILAETKRVVSMDLVEYNPSLDEVDKKVHGDSLPILDNATKTGKLCLELIARVLGYDIV | soluble
